For assay [1], the target named is T1, HLA-A*01:01 in complex with the BTK peptide … conjugated with Ibrutinib (human, ibrutinib covalently bound to Cys).
T1 construct: also called HLA-A*01:01_BTK-Ibrutinib
Briefly: phage display selection; MBBA.

In assay [2] the target is T2, HLA-A*02:01 in complex with the EGFR peptide … conjugated with osimertinib (human, osimertinib covalently bound to Cys).
T2 construct: also called HLA-A*02:01_EGFR-osimertinib; osimertinib-EGFR/HLA-A*02
Briefly: yeast display.

Changes are numbered by the printed parent chain.

B1: IBA1-4 (antibody, V domains shown)
VH: EVQLVESGGGLVQPGGSLRLSCAASGFTVSSSSIHWVRQAPGKGLEWVASIYSYSGSTYYADSVKGRFTISADTSKNTAYLQMNSLRAEDTAVYYCARQYSSSYYVWPGMDYWGQGTLVTVSS
VL: DIQMTQSPSSLSASVGDRVTITCRASQSVSSAVAWYQQKPGKAPKLLIYSASSLYSGVPSRFSGSRSGTDFTLTISSLQPEDFATYYCQQYHYWASLITFGQGTKVEIKR
notes: phage-display clone
As to B1, the binding result in assay [1] is given as “binds”.

B2: IBA1-19 (antibody, V domains shown)
VH: EVQLVESGGGLVQPGGSLRLSCAASGFTFSYSSIHWVRQAPGKGLEWVASIYPSSGYTSYADSVKGRFTISADTSKNTAYLQMNSLRAEDTAVYYCARGWWYWMAWDYAMDYWGQGTLVTVSS
VL: B1 VL with Y91S, H92W, Y93M, W94S, A95D
notes: phage-display clone
As for B2, the binding result in assay [1] was “binds”.

B3: IBA1-7 (antibody, V domains shown)
VH: EVQLVESGGGLVQPGGSLRLSCAASGFTLSSSSIHWVRQAPGKGLEWVASISSYYGSTSYADSVKGRFTISADTSKNTAYLQMNSLRAEDTAVYYCARMHYSWQEYYSYDWGMDYWGQGTLVTVSS
VL: B1 VL with Y91S, H92Y, Y93W, A95K, I98V
notes: phage-display clone
With B3, the binding result in assay [1] was “binds”.

B4: EO_Q01 (scFv, V domains shown)
VH: EVQLVESGGGLVQPGGSLRLSCAASGFTISSSYIHWVRQAPGKGLEWVAYISPSYGSTSYADSVKGRFTISADTSKNTAYLQMNSLRAEDTAVYYCARELVTMTADYWGQGTLVTVSS
VL: DIQMTQSPSSLSASVGDRVTITCRASQSVSSAVAWYQQKPGKAPKLLIYSASSLYSGVPSRFSGSRSGTDFTLTISSLQPEDFATYYCQQYSHWPITFGQGTKVEIKR
notes: yeast-display scFv
B4: the binding result in assay [2] is “binds”.

B5: IBA1-8 (antibody, V domains shown)
VH: EVQLVESGGGLVQPGGSLRLSCAASGFTISYSSIHWVRQAPGKGLEWVASIYPSYGSTSYADSVKGRFTISADTSKNTAYLQMNSLRAEDTAVYYCARWQGYYQPALDYWGQGTLVTVSS
VL: B4 VL with Y91P, S92Y, H93Y, W94P, P95L
notes: phage-display clone
With B5, the binding result in assay [1] is listed as “binds”.

B6: EO_Q11 (scFv, V domains shown)
VH: B4 VH with A105I
VL: B4 VL with H93G
notes: yeast-display scFv
Consider B6, for which the binding result in assay [2] is given as “binds”.

B7: EO_Q14 (scFv, V domains shown)
VH: B4 VH with L100S, V101I, T104S, A105P
VL: B4 VL with H93S
notes: yeast-display scFv
Consider B7, for which, in assay [2], the binding result is recorded as “binds”.

B8: EO_Q20 (scFv, V domains shown)
VH: B4 VH with L100E, A105P
VL: B4 VL with H93D
notes: yeast-display scFv
B8: the binding result in assay [2] is “binds”.

B9: EO_Q13 (scFv, V domains shown)
VH: B4 VH with V101T
VL: B4 VL
notes: yeast-display scFv
For B9, the binding result in assay [2] is reported as “binds”.

B10: EO_Q06 (scFv, V domains shown)
VH: B4 VH with L100S, V101I, A105K
VL: B4 VL
notes: yeast-display scFv
Consider B10, for which the binding result in assay [2] is “binds”.

B11: EO_Q09 (scFv, V domains shown)
VH: B4 VH with L100E
VL: B4 VL
notes: yeast-display scFv
For B11, the binding result in assay [2] is listed as “binds”.

B12: EO_Q18 (scFv, V domains shown)
VH: B4 VH with L100Y, T104A, A105L
VL: B4 VL with H93A, I96E
notes: yeast-display scFv
In the case of B12, the binding result in assay [2] is listed as “binds”.

B13: EO_Q15 (scFv, V domains shown)
VH: B4 VH with V101I, T102E, A105T
VL: B4 VL
notes: yeast-display scFv
In the case of B13, the binding result in assay [2] is recorded as “binds”.

B14: EO_Q02 (scFv, V domains shown)
VH: B4 VH with L100Y, V101T, T104S, A105I
VL: B4 VL with H93A, I96E
notes: yeast-display scFv
In the case of B14, in assay [2], the binding result was “binds”.

B15: EO_Q04 (scFv, V domains shown)
VH: B4 VH with L100S, A105K
VL: B4 VL with H93D
notes: yeast-display scFv
As to B15, the binding result in assay [2] was “binds”.

B16: EO_Q07 (scFv, V domains shown)
VH: B4 VH with V101T, T104S, A105I
VL: B4 VL with S92A, H93K
notes: yeast-display scFv
Turning to B16, the binding result in assay [2] is on record as “binds”.

B17: EO_Q10 (scFv, V domains shown)
VH: B4 VH with V101I, T102E, A105P
VL: B4 VL with H93G
notes: yeast-display scFv
In the case of B17, the binding result in assay [2] is recorded as “binds”.

B18: EO_Q12 (scFv, V domains shown)
VH: B4 VH with V101T, T104S, A105I
VL: B4 VL with S92A, H93S
notes: yeast-display scFv
Consider B18, for which the binding result in assay [2] was “binds”.

B19: EO_Q03 (scFv, V domains shown)
VH: B4 VH with L100S, T104S
VL: B4 VL with H93A
notes: yeast-display scFv
B19: in assay [2], the binding result is reported as “binds”.

B20: EO_Q23 (scFv, V domains shown)
VH: B4 VH with L100Y, T104A, A105L
VL: B4 VL with I96E
notes: yeast-display scFv
Turning to B20, in assay [2], the binding result is recorded as “binds”.

B21: EO_Q08 (scFv, V domains shown)
VH: B4 VH with V101T, T102E, A105T
VL: B4 VL with H93S
notes: yeast-display scFv
Regarding B21, the binding result in assay [2] is listed as “binds”.

B22: EO_Q05 (scFv, V domains shown)
VH: B4 VH with L100E, T104S, A105I
VL: B4 VL with S92A, H93E
notes: yeast-display scFv
Take B22: in assay [2], the binding result is reported as “binds”.

B23: EO_Q22 (scFv, V domains shown)
VH: B4 VH with L100Y, T104A, A105L
VL: B4 VL
notes: yeast-display scFv
Consider B23, for which the binding result in assay [2] is on record as “binds”.

B24: EO_Q24 (scFv, V domains shown)
VH: B4 VH with L100Y, T104A, A105L
VL: B4 VL with H93E, I96E
notes: yeast-display scFv
In the case of B24, in assay [2], the binding result was “binds”.

B25: IBA1-13 (antibody, V domains shown)
VH: EVQLVESGGGLVQPGGSLRLSCAASGFTLSSSSIHWVRQAPGKGLEWVASIYSSYGYTYYADSVKGRFTISADTSKNTAYLQMNSLRAEDTAVYYCARYYYYWYGGMDYWGQGTLVTVSS
VL: DIQMTQSPSSLSASVGDRVTITCRASQSVSSAVAWYQQKPGKAPKLLIYSASSLYSGVPSRFSGSRSGTDFTLTISSLQPEDFATYYCQQGHDMNPVTFGQGTKVEIKR
notes: phage-display clone
As to B25, the binding result in assay [1] is “binds”.

The values are drawn from patent US20250353912A1 (NEW YORK UNIVERSITY, published 2025).
